{"source": "paper PMC6658569", "tested_on": "PurR (Escherichia coli K12?)", "assay": "MST", "conditions": "panel assigned by order of figure text (h before i); EMSA: binding buffer 250 mM Tris pH 6.8, 150 mM NaCl, 5 mM EDTA, 10 mM DTT, 50% glycerol; 8% PAGE in 20 mM Tris-borate, 1 mM EDTA pH 8.0, 4 C, 80 V, EB stain …", "data": [{"substance": "glyA promoter (212 bp)", "values": [{"measurement": "Kd", "value": 239, "unit": "µM"}]}, {"substance": "kbl promoter (208 bp)", "values": [{"measurement": "Kd", "value": 7.11, "unit": "µM"}]}]}
